In PMC4677475 (Journal of biomolecular screening, 2011):
Like-named read-outs stand apart in the source and are kept apart here.

What was measured:
[1] = target: T1, His-tagged human GTP cyclohydrolase 1 (human, UniProt P30793 1-250); test: FRET or BRET
T1 sequence (looked up): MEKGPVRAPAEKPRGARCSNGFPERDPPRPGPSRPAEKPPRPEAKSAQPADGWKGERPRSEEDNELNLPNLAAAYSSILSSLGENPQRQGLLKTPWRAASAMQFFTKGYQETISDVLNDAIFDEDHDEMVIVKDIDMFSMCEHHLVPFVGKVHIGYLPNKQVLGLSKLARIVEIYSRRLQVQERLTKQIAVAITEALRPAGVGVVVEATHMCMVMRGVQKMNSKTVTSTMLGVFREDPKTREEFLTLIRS

[2] = target: T1, His-tagged human GTP cyclohydrolase 1; test: FRET or BRET; remark: listed apart in the source

- Kd [1]: 52.1 nM
- Kd [2]: 15.9 nM
B1: glutathione S-transferase (GST)-tagged human GTP cyclohydrolase feedback regulatory protein (natural protein)
chain: not shown
